Reference: publication PMC3902948 (Nucleic Acids Research, 2013)

Target: Prp43-Strep (S. cerevisiae, UniProt P53131 1-767)
Assay: titration of the ATPase activity of Prp43

Prp43-Strep, sequence (P53131 whole entry): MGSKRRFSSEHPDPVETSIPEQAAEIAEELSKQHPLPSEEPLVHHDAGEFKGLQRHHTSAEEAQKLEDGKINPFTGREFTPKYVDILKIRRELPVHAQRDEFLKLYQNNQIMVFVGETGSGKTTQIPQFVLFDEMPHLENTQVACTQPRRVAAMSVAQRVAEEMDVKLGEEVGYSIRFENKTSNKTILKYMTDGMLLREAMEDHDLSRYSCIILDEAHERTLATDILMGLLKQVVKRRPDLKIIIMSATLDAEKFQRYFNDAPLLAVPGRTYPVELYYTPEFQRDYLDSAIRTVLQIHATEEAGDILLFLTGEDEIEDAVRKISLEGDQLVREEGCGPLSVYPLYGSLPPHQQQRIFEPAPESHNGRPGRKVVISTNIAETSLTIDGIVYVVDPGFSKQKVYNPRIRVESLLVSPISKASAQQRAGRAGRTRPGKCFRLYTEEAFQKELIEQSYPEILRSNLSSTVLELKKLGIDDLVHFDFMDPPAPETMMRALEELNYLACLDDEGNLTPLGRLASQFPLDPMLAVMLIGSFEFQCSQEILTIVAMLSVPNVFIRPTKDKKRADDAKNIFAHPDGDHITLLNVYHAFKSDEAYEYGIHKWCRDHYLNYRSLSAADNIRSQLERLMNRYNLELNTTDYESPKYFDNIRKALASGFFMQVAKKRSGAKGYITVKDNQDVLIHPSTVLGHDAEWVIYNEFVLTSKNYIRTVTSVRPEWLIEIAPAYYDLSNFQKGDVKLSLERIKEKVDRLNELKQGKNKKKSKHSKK

| Kd | Binder |
| --- | --- |
| 1.49 ± 0.05 µM | Strep-Ntr1(1–120) (domain or fragment, S. cerevisiae, UniProt Q06411 1-120, looked up) MEDSDSNTDKKFFFKKRRIDSYNYSDEEDNNSSMNSDMTYTNDALKTSSGNAPTISKLTKTYGIGAKLLSSMGYVAGKGLGKDGSGITTPIETQSRPMHNAGLGMFSNTNSSNYHSENED |
| 2.24 ± 0.11 µM | Ntr1(51–110) (domain or fragment, S. cerevisiae, UniProt Q06411 51-110, looked up) NAPTISKLTKTYGIGAKLLSSMGYVAGKGLGKDGSGITTPIETQSRPMHNAGLGMFSNTN |
